The supplement of paper PMC10567573

B1: DVL3 (parent)
chain: FPELGYSYGGGSASSQHSEGSRSS
B2: GLT8D2 (parent)
chain: QEAKLLHWNGRHKPWDFPSVHNDL

Variants of: B1
Assay: protein stability index of a GFP-peptide fusion (GPS, HEK-293T) (PSI 1-6); higher = more stable
Settings: c terminus: a fixed tail appended
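Note: lentivirally expressed fusions sorted by FACS into six bins by GFP to DsRed ratio, PSI derived from sequencing read proportions per bin multiplied by bin number.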

Variant	protein stability index
Y8M	3.6
Y8N	4.09
Y8P	3.97
Y8Q	4.06
Y8R	3.2
Y8S	4.09
Y8T	3.7
Y8V	3.45
Y8W	2.82
G9A	2.39
G9C	2.3
G9D	4.05
G9E	4.39
G9F	2.43
G9H	2.93
G9I	2.22
G9K	3.18
G9L	1.6
G9M	2.49
G9N	3.77
G9P	3.37
G9Q	2.8
G9R	2.91
G9S	3.27
G9T	3.32

Variant	protein stability index
G9V	2.4
G9W	1.58
G9Y	2.11
G10A	3.06
G10C	2.2
G10D	3.67
G10E	3.95
G10F	2.22
G10H	3.12
G10I	2.81
G10K	3.61
G10L	2.62
G10M	2.15
G10N	3.55
G10P	3.3
G10Q	2.84
G10R	2.74
G10S	3.45
G10T	2.78
G10V	2.83
G10W	1.89
G10Y	2.45
G11A	3.29
G11C	2.7
G11D	3.35

Variant	protein stability index
G11E	3.22
G11F	2.28
G11H	3.29
G11I	2.22
G11K	2.7
G11L	2.57
G11M	2.73
G11N	2.98
G11P	2.9
G11Q	3.16
G11R	3.5
G11S	3.03
G11T	2.52
G11V	2.81
G11W	2.11
G11Y	2.38
S12A	2.58
S12C	3.03
S12D	3.2
S12E	3.56
S12F	2.65
S12G	3.14
S12H	2.9
S12I	2.64
S12K	2.82

Variant	protein stability index
S12L	2.81
S12M	2.9
S12N	3.17
S12P	2.92
S12Q	3.12
S12R	2.91
S12T	3.29
S12V	3
S12W	2.22
S12Y	2.41
A13C	2.22
A13D	2.77
A13E	3.47
A13F	2.31
A13G	3.04
A13H	2.73
A13I	2.45
A13K	2.63
A13L	3.18
A13M	2.98
A13N	3.03
A13P	2.94
A13Q	2.8
A13R	3.12
A13S	2.9

Variant	protein stability index
A13T	3.31
A13V	3.12
A13W	1.91
A13Y	2.49
S14A	3.45
S14C	2.71
S14D	3.61
S14E	3.41
S14F	2.16
S14G	3.44
S14H	3.17
S14I	2.9
S14K	3.51
S14L	2.73
S14M	2.59
S14N	2.87
S14P	3.24
S14Q	2.99
S14R	3.25
S14T	2.77
S14V	2.96
S14W	2.47
S14Y	2.37
S15A	3.59
S15C	2.19

Variant	protein stability index
S15D	2.99
S15E	3.65
S15F	2.71
S15G	2.8
S15H	3.2
S15I	2.9
S15K	2.64
S15L	3.16
S15M	2.74
S15N	3.38
S15P	3.56
S15Q	3.18
S15R	2.92
S15T	2.65
S15V	3.2
S15W	1.75
S15Y	2.73
Q16A	2.86
Q16C	2.81
Q16D	3.58
Q16E	3.22
Q16F	2.03
Q16G	2.88
Q16H	3.12
Q16I	3.05

Variant	protein stability index
Q16K	2.95
Q16L	2.83
Q16M	3.07
Q16N	3.28
Q16P	3.31
Q16R	2.41
Q16S	3.09
Q16T	3.48
Q16V	2.7
Q16W	2.27
Q16Y	2.69
H17A	3.12
H17C	3.1
H17D	3.08
H17E	3.29
H17F	2.77
H17G	3.07
H17I	2.74
H17K	3.12
H17L	2.77
H17M	2.62
H17N	3.31
H17P	3.35
H17Q	2.83
H17R	2.61

Variant	protein stability index
H17S	2.8
H17T	3.12
H17V	3.22
H17W	2.77
H17Y	2.45
S18A	3.19
S18C	2.9
S18D	3.7
S18E	3.5
S18F	2.77
S18G	3.12
S18H	2.95
S18I	2.73
S18K	2.98
S18L	2.86
S18M	2.76
S18N	2.89
S18P	3.24
S18Q	3.15
S18R	2.97
S18T	3.3
S18V	3.36
S18W	2.2
S18Y	2.9
E19A	2.99

Variant	protein stability index
E19C	2.39
E19D	3.64
E19F	3.64
E19G	2.87
E19H	2.38
E19I	2.94
E19K	2.89
E19L	2.06
E19M	3.12
E19N	2.59
E19P	3.15
E19Q	2.66
E19R	2.85
E19S	3.16
E19T	3.24
E19V	2.52
E19W	1.81
E19Y	2.41
G20A	2.52
G20C	2.99
G20D	3.7
G20E	3.52
G20F	2.63
G20H	2.9
G20I	2.73

Variant	protein stability index
G20K	3.06
G20L	2.5
G20M	2.48
G20N	3.43
G20P	2.94
G20Q	3.27
G20R	3.15
G20S	3.18
G20T	3.42
G20V	2.75
G20W	2.32
G20Y	2.64
S21A	2.94
S21C	3.3
S21D	2.87
S21E	3
S21F	2.56
S21G	2.71
S21H	2.94
S21I	2.83
S21K	3.17
S21L	2.61
S21M	2.78
S21N	2.91
S21P	3.43

Variant	protein stability index
S21Q	3.41
S21R	2.62
S21T	3.24
S21V	3.07
S21W	2.29
S21Y	2.88
R22A	3.41
R22C	3.41
R22D	3.42
R22E	3.71
R22F	2.79
R22G	3.53
R22H	3.24
R22I	3.43
R22K	3.15
R22L	2.53
R22M	3.4
R22N	3.56
R22P	3.59
R22Q	2.92
R22S	3.66
R22T	2.6
R22V	3.18
R22W	2.88
R22Y	3.21

Variant	protein stability index
S23A	2.97
S23C	3.38
S23D	3.17
S23E	2.9
S23F	2.39
S23G	3.26
S23H	3.33
S23I	3.34
S23K	3.05
S23L	2.49
S23M	2.33
S23N	2.91
S23P	3.23
S23Q	3.24
S23R	3.05
S23T	2.46
S23V	2.63
S23W	2.59
S23Y	2.49
S24A	3.5
S24C	2.99
S24D	3.24
S24E	4.02
S24F	2.57
S24G	3.01

Variant	protein stability index
S24H	3
S24I	2.37
S24K	3.42
S24L	2.94
S24M	2.97
S24N	3.56
S24P	3.93
S24Q	3.01
S24R	3.69
S24T	2.92
S24V	2.34
S24W	1.95
S24Y	2.58

Variants of: B2
Assay: as above
Settings: c terminus: a fixed tail appended

Variant	protein stability index
Q1A	2.68
Q1C	1.75
Q1D	3.54
Q1E	3.02
Q1F	1.65
Q1G	2.65
Q1H	2.35
Q1I	1.69
Q1K	2.49
Q1L	2.1
Q1M	2.35
Q1N	2.84
Q1P	2.85
Q1R	2.48
Q1S	2.51
Q1T	2.49
Q1V	2
Q1W	2.21
Q1Y	1.79
E2A	1.89
E2C	1.97
